Blank lines part the entries; values can stand above or below the substance they belong to.
Legend:
Experiment in all cases: SPR
mFcγRIV = target: T1, mFcγRIV
T1 sequence: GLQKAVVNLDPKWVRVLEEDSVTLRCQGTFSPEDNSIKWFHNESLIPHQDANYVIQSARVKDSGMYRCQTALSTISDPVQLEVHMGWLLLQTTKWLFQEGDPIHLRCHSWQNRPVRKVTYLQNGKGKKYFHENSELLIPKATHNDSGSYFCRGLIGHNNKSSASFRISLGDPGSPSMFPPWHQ

[1] = target: cynoFcγRIIb (Macaca fascicularis)
mFcγRIIb (Mus musculus) = mFcγRIIb (Mus musculus) (UniProt P08101)
[2] = target: human FcγRI receptor protein (R&D Systems) (human) (UniProt P12314)
Sequence of human FcγRI receptor protein (R&D Systems) (human) (P12314 16-288 limits assumed): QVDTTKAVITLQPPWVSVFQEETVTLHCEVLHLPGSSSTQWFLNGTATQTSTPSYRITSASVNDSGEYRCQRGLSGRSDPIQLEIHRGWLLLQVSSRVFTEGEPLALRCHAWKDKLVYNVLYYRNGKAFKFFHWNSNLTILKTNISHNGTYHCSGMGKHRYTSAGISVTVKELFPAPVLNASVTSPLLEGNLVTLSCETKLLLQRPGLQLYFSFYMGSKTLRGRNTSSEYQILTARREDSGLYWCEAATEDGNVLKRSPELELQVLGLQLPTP

[3] = target: human FcγRIIa (131H), His- and GST-tagged (human) (UniProt P12318)
Sequence of human FcγRIIa (131H), His- and GST-tagged (human) (P12318 34-217): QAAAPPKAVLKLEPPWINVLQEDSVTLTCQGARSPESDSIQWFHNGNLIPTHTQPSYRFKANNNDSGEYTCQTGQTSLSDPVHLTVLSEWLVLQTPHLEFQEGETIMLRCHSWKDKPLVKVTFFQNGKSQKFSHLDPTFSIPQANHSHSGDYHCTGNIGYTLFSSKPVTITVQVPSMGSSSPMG

[4] = target: human FcγRIIa (131R), His- and GST-tagged (human) (UniProt P12318)
Sequence of human FcγRIIa (131R), His- and GST-tagged (human) (P12318 34-217 H167R): as the sequence (P12318 34-217) above, with H134R counted along it

[5] = target: human FcγRIIb receptor protein (R&D Systems) (human) (UniProt P31994)
Sequence of human FcγRIIb receptor protein (R&D Systems) (human) (P31994 46-217 limits assumed): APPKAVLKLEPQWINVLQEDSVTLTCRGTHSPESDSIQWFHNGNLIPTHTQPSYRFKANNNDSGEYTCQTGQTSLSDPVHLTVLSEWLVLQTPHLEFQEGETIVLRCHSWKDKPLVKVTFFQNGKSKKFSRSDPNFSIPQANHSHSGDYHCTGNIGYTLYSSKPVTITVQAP

Sequence of mFcγRIIb (Mus musculus) (P08101 30-210): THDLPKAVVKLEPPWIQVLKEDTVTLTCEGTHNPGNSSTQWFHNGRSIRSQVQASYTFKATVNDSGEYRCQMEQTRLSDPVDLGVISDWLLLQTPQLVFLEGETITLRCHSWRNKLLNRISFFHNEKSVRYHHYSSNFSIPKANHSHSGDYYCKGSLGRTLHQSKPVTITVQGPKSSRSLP

- Fold vs WT IgG1 (Kd) (mFcγRIV): 0.026 fold
Substance: S267E/L328Y (antibody)

- Fold vs WT IgG1 (off-rate) [1]: 0 fold
- Fold vs WT IgG1 (off-rate) (mFcγRIIb (Mus musculus)): 0 fold
Substance: S267D/A327D (antibody)

- Fold vs WT IgG1 [2]: 2.35 fold
- Kd [2]: 0.14 nM
- Fold vs WT IgG1 [3]: 0.993 fold
- Kd [3]: 651 nM
- Fold vs WT IgG1 [4]: 269 fold
- Kd [4]: 3.19 nM
- Fold vs WT IgG1 [5]: 221 fold
- Kd [5]: 6.63 nM
Substance: anti-CD19 antibody IgG1/2 ELLGG S267E/L328F

- Fold vs WT IgG1 (off-rate) (mFcγRIV): 1.23 fold
Substance: V266M (antibody)

— patent US20130315910A1
